Measurements as given in PMC6952207, “Development and Evaluation of a Novel Protein-Based Assay for Specific Detection of KPC β-Lactamases from Klebsiella pneumoniae Clinical Isolates” (mSphere, 2020).

Experiments:
Experiment in all cases: enzyme inhibition assay (nitrocefin hydrolysis); β-lactamase (0.2 to 1 nM) mixed with increasing concentrations of BLIP^K74T/W112D in 50 mM sodium phosphate pH 7.0, 100 μg/ml BSA, room temperature, 20 min; initial nitrocefin hydrolysis rates at 482 nm fitted to the Morrison tight binding inhibitor equation
[1] = biological target: KPC-3 β-lactamase (UniProt Q9F663)
[2] = biological target: KPC-7 β-lactamase (UniProt Q9F663)
[3] = biological target: KPC-8 β-lactamase (UniProt Q9F663)
[4] = biological target: KPC-5 β-lactamase (UniProt Q9F663)
[5] = biological target: CTX-M-15 β-lactamase (UniProt Q9EXV5)
[6] = biological target: KPC-4 β-lactamase (UniProt Q9F663)
[7] = biological target: KPC-9 β-lactamase (UniProt Q9F663)
[8] = biological target: TEM-1 β-lactamase (enzyme of the Ki assay) (UniProt P62593)
[9] = biological target: CTX-M-14 β-lactamase (enzyme of the Ki assay) (UniProt Q9L5C7)
[10] = biological target: KPC-6 β-lactamase (UniProt Q9F663)
[11] = biological target: T1, KPC-2 β-lactamase (purified) (UniProt Q9F663 30-293); conditions: both partners purified
T1 construct: KPC-2 carbapenemase (class A β-lactamase); also called KPC-2 carbapenemase; source: E. coli BL21(DE3) (pET-28a+), purified (Co2+ Talon resin, Superdex75 gel filtration)

[12] = biological target: T2, OXA-48 carbapenemase (UniProt Q6XEC0 23-265); conditions: both partners purified
T2 construct: OXA-48 carbapenemase (β-lactamase)

Molecule: β-lactamase inhibitory protein variant BLIP^K74T/W112D (from UniProt P35804 37-201) (natural protein)
- Ki [1]: 2.5 nM
- Ki [2]: 1.5 nM
- Ki [3]: 1.6 nM
- Ki [4]: 1.5 nM
- Ki [5]: 433 nM
- Ki [6]: 1.2 nM
- Ki [7]: 0.7 nM
- Ki [8]: 6240 nM
- Ki [9]: 908 nM
- Ki [10]: 1.3 nM

B1: β-lactamase inhibitory protein variant BLIP^K74T/W112D (natural protein)
chain: AGVMTGAKFTQIQFGMTRQQVLDIAGAENCETGGSFGDSIHCRGHAAGDYYAYATFGFTSAAADAKVDSKSQETLLAPSAPTLTLAKFNQVTVGMTRAQVLATVGQGSCTTDSEYYPAYPSTAGVTLSLSCFDVDGYSSTGFYRGSAHLWFTDGVLQGKRQWDLV
notes: the variant was found there by mutagenesis and genetic screening; also called BLIP mutant; source: E. coli RB791 (plasmid pGR32), purified (Co2+ Talon resin, Superdex75 gel filtration); not shown: His6, N-terminal, kept
- Ki [11]: 2.4 ± 0.4 nM
- Ki [12]: 1180 ± 129 nM
